B1: Vps38, subunit of complex II (natural protein)
chain: MKRFLLSRRQRHLRMICFHNISLFRANGDSKLIKEYGDGFIPCFFILESIRGELLYVSEVQSGSLRKLSFQELPKLTGASTMIVLKLVGLVPSDILCTISSDKNGIIDDKWCVLCTYTIDLNKLQPINEDTVLITGTNAPVLDLIDGSYTLAAEKIKPLKGLVSSHKRNISQVKIKFSLAYSSLLKLNKLLEYSSQVHEEINEISSKIEDDFLSLKNQNHWYMRTVQKSIETLEKEVLQRKKSKKNIEMAQLESNDTINHSKTELSLMSQDESINDDYGSIYSRFVQIKDRLDQLRFKKLYQLIGIFHSTDLFNSDRGYIYFEKPSSVNDVINRLKLKPLNIEILLRQAGESTKHREYVNSQLGYYLLFLHLTAIQIFKAPLPYRLMYYGSTSVIDSQYPLYFTDQMISKHQAKLIKAIHYFNADILQFKQILENYRPT
B2: Vps30/ZZ-Vps38 heterodimer held on IgG beads (complex)
chain 1: MKCQTCHLPLQLDPSLEGLSLTQRNLLLSNNSIITATNENVISNKGIEAADNCGPQIPKERLRRLGEIQNIKDLNLKDDKLITDSFVFLNHDDDDNANITSNSREDQRYGNANGNDNKKANSDTSDGTSTFRDHDEEEQEATDEDENQQIQLNSKTLSTQVNAMTNVFNILSSQTNIDFPICQDCCNILINRLKSEYDDAIKERDTYAQFLSKLESQNKEISESNKEKQYSHNLSEKENLKKEEERLLDQLLRLEMTDDDLDGELVRLQEKKVQLENEKLQKLSDQNLMDLNNIQFNKNLQSLKLQYELSLNQLDKLRKINIFNATFKISHSGPFATINGLRLGSIPESVVPWKEINAALGQLILLLATINKNLKINLVDYELQPMGSFSKIKKRMVNSVEYNNSTTNAPGDWLILPVYYDENFNLGRIFRKETKFDKSLETTLEIISEITRQLSTIASSYSSQTLTTSQDESSMNNANDVENSTSILELPYIMNKDKINGLSVKLHGSSPNLEWTTAMKFLLTNVKWLLAFSSNLLSKSITLSPTVNYNDKTISGN
chain 2: B1 chain
B3: Vps30/Atg6, subunit of complex II (natural protein)
chain: B2 chain 1
B4: Vps34 (vacuolar protein sorting 34), subunit of complex II (enzyme)
chain: LNNITFCVSQDLDVPLKVKIKSLEGHKPLLKPSQKILNPELMLIGSNVFPSSDLIVSLQVFDKERNRNLTLPIYTPYIPFRNSRTWDYWLTLPIRIKQLTFSSHLRIILWEYNGSKQIPFFNLETSIFNLKDCTLKRGFESLKFRYDVIDHCEVVTDNKDQENLNKYFQGEFTRLPWLDEITISKLRKQRENRTWPQGTFVLNLEFPMLELPVVFIEREIMNTQMNIPTLKNNPGLSTDLREPNRNDPQIKISLGDKYHSTLKFYDPDQPNNDPIEEKYRRLERASKNANLDKQVKPDIKKRDYLNKIINYPPGTKLTAHEKGSIWKYRYYLMNNKKALTKLLQSTNLREESERVEVLELMDSWAEIDIDDALELLGSTFKNLSVRSYAVNRLKKASDKELELYLLQLVEAVCFENLSTFSDKSNSEFTIVDAVSSQKLSGDSMLLSTSHANQKLLKSISSESETSGTESLPIVISPLAEFLIRRALVNPRLGSFFYWYLKSESEDKPYLDQILSSFWSRLDKKSRNILNDQVRLINVLRECCETIKRLKDTTAKKMELLVHLLETKVRPLVKVRPIALPLDPDVLICDVCPETSKVFKSSLSPLKITFKTTLNQPYHLMFKVGDDLRQDQLVVQIISLMNELLKNENVDLKLTPYKILATGPQEGAIEFIPNDTLASILSKYHGILGYLKLHYPDENATLGVQGWVLDNFVKSCAGYCVITYILGVGDRHLDNLLVTPDGHFFHADFGYILGQDPKPFPPLMKLPPQIIEAFGGAESSNYDKFRSYCFVAYSILRRNAGLILNLFELMKTSNIPDIRIDPNGAILRVRERFNLNMSEEDATVHFQNLINDSVNALLPIVIDHLHNLAQYWRT

Assay [1] deals with Vps38-C2 with CC1 region (Saccharomyces cerevisiae). The assay is described as follows: SEC-MALS. In general terms: Size exclusion chromatography separates by hydrodynamic size, large species first.
The target in assay [2] is B4. The assay is described as follows: crystal structure.
In assay [3] the target is B3. The assay is described as follows: crystal structure.
Assay [4] addresses T1, Vps15, subunit of complex II (Saccharomyces cerevisiae, UniProt P22219 1-1454).
T1 sequence: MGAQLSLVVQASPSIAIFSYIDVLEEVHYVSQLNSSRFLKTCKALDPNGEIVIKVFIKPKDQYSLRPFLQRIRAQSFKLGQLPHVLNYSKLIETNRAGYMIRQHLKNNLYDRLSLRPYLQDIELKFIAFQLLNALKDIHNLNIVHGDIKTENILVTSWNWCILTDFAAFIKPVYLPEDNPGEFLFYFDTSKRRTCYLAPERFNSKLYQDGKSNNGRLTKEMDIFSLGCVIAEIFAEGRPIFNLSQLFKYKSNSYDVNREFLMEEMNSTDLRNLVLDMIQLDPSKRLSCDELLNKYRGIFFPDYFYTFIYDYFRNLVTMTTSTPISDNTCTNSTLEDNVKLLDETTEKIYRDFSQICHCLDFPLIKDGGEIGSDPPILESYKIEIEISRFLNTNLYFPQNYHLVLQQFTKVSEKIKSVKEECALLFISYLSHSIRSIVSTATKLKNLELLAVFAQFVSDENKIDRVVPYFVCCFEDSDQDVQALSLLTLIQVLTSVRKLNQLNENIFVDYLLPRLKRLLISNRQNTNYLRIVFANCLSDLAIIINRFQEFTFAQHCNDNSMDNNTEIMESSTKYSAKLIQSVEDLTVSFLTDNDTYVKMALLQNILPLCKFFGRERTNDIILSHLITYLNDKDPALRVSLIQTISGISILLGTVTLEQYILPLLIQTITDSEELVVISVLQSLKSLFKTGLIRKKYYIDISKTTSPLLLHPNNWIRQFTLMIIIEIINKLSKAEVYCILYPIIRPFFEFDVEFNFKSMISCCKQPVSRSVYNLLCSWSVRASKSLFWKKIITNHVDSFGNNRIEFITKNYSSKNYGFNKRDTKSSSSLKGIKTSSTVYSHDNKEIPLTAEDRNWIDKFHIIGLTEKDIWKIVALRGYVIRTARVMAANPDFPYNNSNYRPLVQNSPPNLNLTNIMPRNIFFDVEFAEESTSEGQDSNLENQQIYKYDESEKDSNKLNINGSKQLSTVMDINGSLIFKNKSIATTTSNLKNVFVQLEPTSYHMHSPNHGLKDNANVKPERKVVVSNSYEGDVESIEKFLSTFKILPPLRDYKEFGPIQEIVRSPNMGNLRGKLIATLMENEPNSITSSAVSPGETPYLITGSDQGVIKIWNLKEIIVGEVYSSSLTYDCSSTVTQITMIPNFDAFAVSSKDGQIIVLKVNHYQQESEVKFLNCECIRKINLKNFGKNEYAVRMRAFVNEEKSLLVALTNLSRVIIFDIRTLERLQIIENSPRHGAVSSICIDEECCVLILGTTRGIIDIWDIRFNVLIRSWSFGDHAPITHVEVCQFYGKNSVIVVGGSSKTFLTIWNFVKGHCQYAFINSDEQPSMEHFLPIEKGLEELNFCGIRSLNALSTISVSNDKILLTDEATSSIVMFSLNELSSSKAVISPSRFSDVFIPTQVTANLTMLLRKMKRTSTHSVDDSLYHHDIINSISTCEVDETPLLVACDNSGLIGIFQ
The experiment in a line: SEC-MALS.

Assay [5] addresses Saccharomyces cerevisiae Vps15/Vps34 heterodimer (Saccharomyces cerevisiae, UniProt P22219;P22543). The experiment in a line: pull-down.
Assay [6] concerns the target B1. The assay is described as follows: SEC-MALS.
The target in assay [7] is B3. The assay is described as follows: SEC-MALS.

The stoichiometry N is the number of molecules, sites or subunits per partner or assembly. In assay [1], “Vps30-NTD with CC1 region (domain or fragment)” returned a stoichiometry N of 1.

For B1, the binding result in assay [2] and in assay [3] was “binds” each time. Besides, in assay [4], the “stoichiometry N” value worked out at 1.

As for B2, in assay [5], the binding result is on record as “binds”.

For the molecule B3, the binding result in assay [2] was “binds”. Moreover, the “stoichiometry N” value in assay [4] and in assay [6] was 1 each time.

Turning to B4, the “stoichiometry N” value in assay [4], in assay [7] and in assay [6] was 1 in each case.

(Values after article PMC4601532 (Science (New York, N.Y.), 2015).)
